Molecular target: XKVLQT1 (Xenopus KVLQT1 homologue, 1.6 kb partial clone) (Xenopus) (UniProt P70057)
Experiment: cell-based or functional assay

Chain of UniProt P70057 (P70057 other isoform, or with tags, fused parts or gaps): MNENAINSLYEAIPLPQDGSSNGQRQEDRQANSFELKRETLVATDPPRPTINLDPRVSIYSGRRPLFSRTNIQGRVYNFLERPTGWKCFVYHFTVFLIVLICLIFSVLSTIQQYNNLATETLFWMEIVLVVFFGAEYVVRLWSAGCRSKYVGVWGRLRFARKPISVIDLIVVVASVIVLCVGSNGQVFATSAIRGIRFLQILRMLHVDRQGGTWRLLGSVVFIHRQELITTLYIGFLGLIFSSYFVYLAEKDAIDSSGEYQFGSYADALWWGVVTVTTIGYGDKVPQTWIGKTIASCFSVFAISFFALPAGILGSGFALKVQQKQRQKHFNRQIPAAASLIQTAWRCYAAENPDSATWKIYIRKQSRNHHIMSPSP

IsK at +40 mV, oocytes injected with 60 pg hminK cRNA: 2.11 µA
IsK at +40 mV, oocytes injected with 1 ng hminK cRNA: 2.2 µA
V½ of the normalized isochronal activation curve, oocytes injected with hminK: 2.4 mV
Substance: human minK (from UniProt P15382 1-129)
